The term EC50 (read off the curve) denotes the midpoint of the concentration-response curve.

The record followed here is patent publication US20200347130A1 (JIANGSU HENGRUI MEDICINE, published 2020).

The target of assay [1] is T1, CD96 epitope peptide #21 (310-329) (human).
T1 peptide: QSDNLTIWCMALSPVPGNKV
The assay can be described thus: peptide ELISA, peptide coated. On the procedure: (§1) The epitopes recognized by anti-CD96 antibody were detected by the assay of binding the antibody to different polypeptide fragments of CD96 protein. The fragments of different polypeptides of the CD96 antigen were coated on the microtiter plate. The signal density after the antibody was added was used to judge the binding activity of the antibody and the polypeptide. The specific experimental method is as follows:
(§2) The polypeptides were diluted to a concentration of 20 μg/ml with PBS buffer (Shanghai Yuanpei Biotechnology Co., Ltd. Cat No. B320), pH 7.4, added to a 96-well microtiter plate (Corning, Cat No. CLS3590-100EA) at a volume of 50 μl/well, and coated at 4° C. overnight. After discarding the liquid, 250 μl/well of 5% skim milk (BD skim milk, Cat No. 232100) blocking solution diluted with PBS was added, and the plate was incubated in an incubator at 37° C. for 3 hours. After blocking, the blocking solution was discarded, and the plate was washed 5 times with PBST buffer (pH 7.4 PBS containing 0.05% tween-20). 50 μl/well of different concentrations of the antibodies to be tested (hybridoma purification antibody or humanized antibody) diluted with sample dilution was added, and the plate was incubated in an incubator at 37° C. for 2 hours. […] After washing the plate 5 times with PBST, 50 μl/well of TMB chromogenic substrate (KPL, Cat No. 52-00-03) was added, the plate was incubated at room temperature for 5-15 min, followed by adding 50 μl/well of 1M H₂SO₄ to stop the reaction. The absorption value was read at 450 nm with a microplate reader (Thermo Scientific MuLtiskan MK3), and the epitopes that CD96 antibody can recognize were analyzed.
In general terms: An ELISA detects its analyte on a solid surface through an enzyme-linked reagent.

Assay [2] addresses T2, CD96 epitope peptide #15 (220-239) (human).
T2 peptide: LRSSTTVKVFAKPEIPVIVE
The experiment in a line: peptide ELISA, peptide coated. How it is done:
as §1, §2

In assay [3] the target is T3, CD96 epitope peptide #6 (92-111) (human).
T3 peptide: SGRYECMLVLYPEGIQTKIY
The experiment in a line: peptide ELISA, peptide coated. On the procedure: as §1, §2

The target of assay [4] is T4, CD96 epitope peptide #19 (280-299) (human).
T4 peptide: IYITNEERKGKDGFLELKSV
The experiment in a line: peptide ELISA, peptide coated. How it is done:
as §1, §2

Assay [5] concerns the target T5, CD96 epitope peptide #2 (32-51) (human).
T5 peptide: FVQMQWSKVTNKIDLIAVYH
The experiment in a line: peptide ELISA, peptide coated. On the procedure:
as §1, §2

Assay [6] addresses T6, CD96 epitope peptide #13 (196-215) (human).
T6 peptide: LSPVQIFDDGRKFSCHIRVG
The experiment in a line: peptide ELISA, peptide coated. On the procedure:
as §1, §2

Assay [7] addresses T7, CD96 epitope peptide #11 (166-185) (human).
T7 peptide: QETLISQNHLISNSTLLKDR
The experiment in a line: peptide ELISA, peptide coated. On the procedure:
as §1, §2

Assay [8] addresses T8, CD96 epitope peptide #8 (122-141) (human).
T8 peptide: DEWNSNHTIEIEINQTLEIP
The assay can be described thus: peptide ELISA, peptide coated. On the procedure:
as §1, §2

The target of assay [9] is T9, CD96 epitope peptide #16 (235-254) (human).
T9 peptide: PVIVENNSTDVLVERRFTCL
The experiment in a line: peptide ELISA, peptide coated. How it is done:
as §1, §2

For assay [10], the target named is T10, Full-length human CD96 on CHO-S cells (human, UniProt P40200 22-585).
T10 construct: also called CD96-CHOs; hCD96-CHOs
T10 sequence: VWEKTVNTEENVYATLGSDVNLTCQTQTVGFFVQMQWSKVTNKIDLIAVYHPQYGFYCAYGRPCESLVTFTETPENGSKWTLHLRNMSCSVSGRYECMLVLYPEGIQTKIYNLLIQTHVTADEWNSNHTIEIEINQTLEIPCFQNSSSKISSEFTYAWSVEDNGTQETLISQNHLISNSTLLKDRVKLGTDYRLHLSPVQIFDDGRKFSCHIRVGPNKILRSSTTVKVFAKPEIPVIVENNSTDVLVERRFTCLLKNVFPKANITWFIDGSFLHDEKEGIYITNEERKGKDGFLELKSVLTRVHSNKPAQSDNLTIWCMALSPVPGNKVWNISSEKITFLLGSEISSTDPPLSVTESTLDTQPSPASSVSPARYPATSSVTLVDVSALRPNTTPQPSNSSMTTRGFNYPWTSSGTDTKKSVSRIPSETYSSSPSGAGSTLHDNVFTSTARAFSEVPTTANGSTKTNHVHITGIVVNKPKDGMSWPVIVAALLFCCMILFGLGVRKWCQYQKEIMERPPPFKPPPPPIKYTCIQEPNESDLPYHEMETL
The experiment in a line: cell ELISA on fixed CHO-S cells overexpressing human CD96, HRP anti-human secondary antibody, OD450. On the procedure:
The binding capacity of the anti-CD96 antibody was tested by binding experiments of the antibody to human CD96 protein overexpressing CHO-S cells. The full-length CD96 plasmid was transfected into CHO-S cells by electrotransfection, and cells were then screened for two weeks under pressure for the detection of the expression of CD96. After the over-expressing cells were fixed at the bottom of the 96-well plate, the density of the signal after adding the antibody was used to judge the binding activity of the antibody to CD96 overexpressing CHO-S cells. The specific experimental method is as follows:
The cells were seeded at a density of 9×10⁴/100 μL/well in a 96-well plate and cultured overnight. After aspirating the supernatant, the plate was washed once with PBS, subsequently, 100 μl/well immunostaining fixation solution (Biyuntian, P0098) was added and fixed for one hour at room temperature, and the plate was washed three times with PBS. Once the liquid was discarded, 250 μl/well of 5% skim milk (BD, 232100) blocking solution diluted with PBS was added, and the plate was blocked in an incubator at 37° C. for 2.5 hours. […] The absorption value was read at 450 nm with a NOVOStar microplate reader, and the EC50 value of the CD96 antibodies to CD96 overexpressing CHO-S cells was calculated (see FIG. 1 and Table 15).

B1: ch1718 (antibody, human IgG4 S228P, kappa, V domains shown)
VH: EFQLQQSGPELVKPGASVKISCKASAYSITDYNMNWVKQSNGKSLEWIGVINPSYGITDYNQNFKDKATLTVDQSSSTAYMQLNSLTSEDSAVYYCAIQLRLPGYFDVWGTGTTVIVSS
VL: DIKMTQSPSSMYASLGERVTITCKASQDINNYLNWFQQKPGKSPKTLIYRANRLVDGVPSRFSGSGSGQDYSLTISSLEYEDMGIYYCLKYDEFPYTFGGGTKVEIKR
notes: also called chimeric antibody corresponding to m1718
Regarding B1, the binding result in assay [1], in assay [2], in assay [3], in [4], in [5] and in assay [6] was “binds” in each case. Moreover, the binding result in assay [7], in assay [8] and in assay [9] was “binds” throughout.

B2: h1719-010 (antibody, V domains shown)
VH: EVTLKESGPVLVKPTETLTLTCTVSGFSLSSYGVSWVRQPPGKGLEWLGVIWGDGNTNYHSVLISRLTISKDTSKSQVVLTLTNMDPVDTATYYCAKQNYYGSRYGYPIDYWGQGTTVTVSS
VL: DIQMTQSPSSVSASVGDRVTITCKATQDVGTAVAWYQQKPGKAPKLLIYWASTRHTGVPSRFSGSGSGTDFTLTISSLQPEDFATYYCQQYGSSVLTFGGGTKVEIK
notes: Only variable regions are tied to this name
In the case of B2, the “EC50 (read off the curve)” value in [10] is around 50 pM.
